The data set is described as follows: soluble on expression in E. coli; label from the status in PepcDB or PDB records.
With “MRGRWPYEEKPLIVFWESTKACLLACKHCRAEALTEPQPGELSTREALALVDQVVEFGRPYPILVITGGDPLMRRDFWRILEYAVSQGLRVAVAPSVTPLLTREVVRRMARMGVARISISIDSGLPEVHDAIRGVPGTFKASVNIVREALAAGLPVQINTTVMKPTVDSLPETLKLLLDLGVDVWEVFYVVPTGRAARILDLTPSEWEDVSNYLYDASRYGVLVRTVEGPMFRRIALTRRLLENMGLDWRNR”, the “soluble on expression in E. coli” value was “not soluble”.
As for “MIDIHCHILPAMDDGAGDSADSIEMARAAVRQGIRTIIATPHHNNGVYKNEPAAVREAADQLNKRLIKEDIPLHVLPGQEIRIYGEVEQDLAKRQLLSLNDTKYILIEFPFDHVPRYAEQLFYDLQLKGYIPVIAHPERNREIRENPSLLYHLVEKGAASQITSGSLAGIFGKQLKAFSLRLVEANLIHFVASDAHNVKTRNFHTQEALYVLEKEFGSELPYMLTENAELLLRNQTIFRQPPQPVKRRKLFGFF”, the “soluble on expression in E. coli” value is listed as “not soluble”.
In the case of “MHTDTPSLESLLEAARQRYDVVFEPLTVDETPLDVLQIRNMRQHIDALVANRSVRDPLHDLPLWAKIWPASFVLGRFLRKASPEGRTLLEVGAGCGVTGLIASRYGFAHVTVSDINEDALLFARANVLKNGLEDRVSVRRVDVASTRLDEKFDVIAASEVLYLEELHRPLIKFLLRHLARREDAVAMLCTDTRRKMGRFFKQAERDFRIEEQLVGIRTTGDDGEEERRVFTIHRLHHKHPLEHHHHHH”, the “soluble on expression in E. coli” value is given as “not soluble”.
Then “MGSDKIHHHHHHMKTQVLYGKSEIEINVPDDSTIIEPQNIDAIQDYESTIKNVLRNPTNSKPLKEMVNSNDIVSIVISDITRPTPNHILVPLLIEELNHVPRENFVIINGTGTHRDQTRDELIQMLGEDIVNSVKIVHNHCSEKESLAKVGHSQYGCDVYLNKAYVESDFKIVTGFIEPHFFAGFSGGPKGIMPGIAGLETIQTFHNAKMIGDPRSTWGNLEDNPVQDMAREVNRMCKPDFLLNVALNKSKEITAAFAGEIFDTHKEGCAYVKDHAMFKCDQRFDIVIASNSGYPLDQNLYQTVKGMSAASKVVKKDGHIIMVSECADGFPDHGKFAEIFKMADTPQGILELIHNPNFKEVDQWQVQKQASIQTFANVHVYSELTDQQLKDSMLIPTSNIEHTIQELEHRYGRKLTIGVMPQGPLTIPYVEDKE”, with “not soluble”; and “MARRGNKAIRATVSMKIALSEPLLVLVNNYVKALRFTLFWLKENVPNPEEKGVLSKVHEALYEKLREEYNLPSKVAEDCYREALATYKGWYNNPRRGRFPRVYRPTVWLTPRASYNVDFEAMTVRIVSVGELSILGYPRNLKEYMGWKMKEARLVIRDDKAFLKVVFEKEEQKVEPKESIAVDINMAEVVVGKDDKNYVRIPTRLEEVHHWKSLAERLLKKYPRRWRENKRILYRVRSFHLKARRIMEDFARKVGKWVVDVAKRMGVNVIKLESLKNLIKSVEKLSKEFRDKLYLMQYRRLQYWISWQAKKRGMTVEFVNPSYSSVSCPKCGKRMVEVSHRWFKCSCGYENDRDVIAIMNLNGRGSLTLSTAPQMRDVNPNRLEHHHHHH”, with “not soluble”.
To “MSTPGTLHIVATPIGNLGDLSPRAQHILRTVTMICAEDTRHTRQLLAHFGIERPLLALHAHNEDTLAERIITRLISGASLALVSDAGTPLISDPGFLLVRAARAAGIRVTPVPGPSALIAALSVSGLPSNRFTFEGFLPAKPTARRDRLTHLAHEPRTLIFYEASHRIAECLTDLATIFGSMRAAVVARELTKIFETVLDGTLATLQTQVANDDNQRKGEFVIIVQGAADQDAAKITEGRRVYALLKEHLPPSSAAKLAAEITGAPRKALYGG” belongs “soluble”; to “TNTEEFCSGCHAPIVKEIQETIHYSNRSGVRAICSDCHVPHNWTDKIVRKVQASKELFAHYVTKTIDTEEKFKERRAHLAEREWHRMKENNSQECRNCHEFDYMDFSEQGPRSAKQHSTALASGEKTCVDCHKGIAHKL”, “not soluble”.
On to “MSLEFQNLANRILDEKSRSFSQSNQTALETLLKPFREQIEGFQKRVNEIHSESVKGNAGLEAEIKKVLEIGLNMSQEASNLTSALKGEKKTLGNWGEVQLERALQLAGLEENVHYRAQAHFKDEQGGRNYPDFVLNLPDEKHLIIDSKMSLVAYESAVNSEDDFERERLLKEHISALKTHINDLHKKDYSNLIGMCSPNFVLMFIAVEPAYIEALKADPALFNYGYERNVIMVSHTTLMPILRTVANLWRIERGNAEAKEIAEKAGEIYNQICLVAERLNKLGNTLSTVSNQYNSTVTALVGQQGLVGKVERFKTLSAKANKTMPDVDLLNNQLDLARLNVLNQENLQEGHHHHHH”, for which the “soluble on expression in E. coli” value is given as “soluble”.
“FHSVLIANVNSGLGELASDADLTQVKGKTLTFGSESSTSGRLMPQYYLEQAGVSLEDFQGEVGFSASHDATIQLVEAGTYDLGMLNEQVWNSRVEAGEVDTNRVNVIWRSPAYYDYHWVISPDVDERYGEG”: the “soluble on expression in E. coli” value is “not soluble”.
Take “KNSFNIKLKEDSEMLEEVVVTGYGGKQLRTKVTNSIAKVKDEALKVGLFSNPAQALSGAVAGLKVTQASGSPGAAPKVTLRGGTNFDGSGDPLVIVDGQLRDGMQDINPEDIESMEVLKDAGATAIYGARASNGVILITTKTGKEGR”: the “soluble on expression in E. coli” value is recorded as “not soluble”.
For the sequence “MLVSRNLAKTISNSKNAKNIHTSCRKFAPVPMTYASYSSPELDRNSPLVIVHGLFGQKQNWNSVGKALHKKLEAPVYAVDVRNHGSSPHTETMSYTEMAEDLVLFIDKVKEETKKTRVNLLGHSMGGKIVMRLAIDSKWSDRIEKLIVEDVSPKGYSRRHLEFRELIKTMRNVDLCRTRKEILKDLESAIPDLAMRQFILTNLQPSSENEGQMEWKININTIDSHVDEILGYTLPVGSFRGPTLFLHGANSGYVPDDHKPDIKCLFPQVQFDAIPDSGHWVHAEKPQLFINSVYKFLKP”, the “soluble on expression in E. coli” value is “not soluble”.
As to “MGSDKIHHHHHHMNNVLILYPKLFNCYSKFSRKVLKITSSLGAATLVYPDDPNGLIEKFCEESSGKMTNKEFPNWTPDDITHAIIFDDGEEFIEETERLKESKKPLRLIGICITRVINIKTETEYQSEKSTPIYEYIGRGSYWGNPYSMFEEGEDREEVIRKYKYDFDFEKFPNKEKSEVYKLAGKRLGCFCKPQACHGDVLADFLNSWDDGK”, the “soluble on expression in E. coli” value is reported as “not soluble”.
As for “MGSDKIHHHHHHMDVVLHIGAHRTASSALQHHLSRNRSKLAEAGVVYWGPKITRGGLFRGAIGGVEGALPWQERRFGKRCALRAEAVRQTGATHLMISDENMVGSLRGALEFTRLYSDAGRRIASYAHGFKTHRMTVALCIRDYADWWVSAMAFRLPRGGPLPRTQARERLVTQPRRWRHVVEDLAQALPDARLVVWSYEASAHALPTLVGDLTGVASADDRAGPRNLRPTAADLHDLMDACDIDPDMFHWPDGQFMPFTVHETEALRAQYQEDLAWLRAGARGFADYIDAPSAQTEAPTDLGRGNPDDGEHRQLA”, the “soluble on expression in E. coli” value is “not soluble”.
Regarding “MSLLKKIERAQQLLKKEAAVFRCPTCHEPMHLEGVGLICQQRHQFDLSKKGTLYFLNHGVQTEYNKKMFTSRGKMIQSGMYAPVLNKIMHYLPQNKTVVDVGCGEGSFLAELSQAGLSGLKIGFDLSKEGIYLASNQPIDAFWCVADLTNLPFANEGLDTILNIFSPSHYQEFRRVLKADGTVIKIIPEENYLKELRAAFYPNDEKKQSYSNQKVVQRFAEELAVEVDERITYCFDIPEERRLDLLEMSPLEWQVSQEVKAELQQRPLEKITIDVRLLVGRKREGHHHHHH”, the “soluble on expression in E. coli” value is given as “soluble”.
On to “MGHHHHHHSHMAIPITVLDCDLLLYGRGHRTLDRFKLDDVTDEYLMSMYGFPRQFIYYLVELLGANLSRPTQRSRAISPETQVLAALGFYTSGSFQTRMGDAIGISQASMSRCVANVTEALVERASQFIRFPADEASIQALKDEFYGLAGMPGVMGVVDCIHVAIKAPNAEDLSYVNRKGLHSLNCLMVCDIRGTLMTVETNWPGSLQDCAVLQQSSLSSQFEAGMHKDSWLLGDSSFFLRTWLMTPLHIPETPAEYRYNMAHSATHSVIEKTFRTLCSRFRCLDGSKGALQYSPEKSSHIILACCVLHNISLEHGMDVWSSPMTGPMEQPPEEEYEHMESLDLEADRIRQELMLTHFS”, for which the “soluble on expression in E. coli” value is listed as “not soluble”.
To “MGSDKIHHHHHHMKIAIVGGPTAVGKTDIMIEVCEEIGAEIISMDSRQIYRYMDIGTAKPTPEQRKRVLHHMIDIIDPDEYYNAFMYRKDSLRAMEDVLRRGKIPVYVGGTGLYADALVRGIFEGVPADENIRKELRELERREPGILRKMLEELDPEAATRIHPNDLKRTIRALEVYMKTGRRISELQKEAKGDDRFFIIVLTRERYELYERINKRVDKMIEMGLVDEVKRLLGMGYSKDLNSMKTIGYKEVIDYLEGKYDFDKMVHLIKRNTRHFARRQIIWFKRYKEAVWYNLTFEDVGEVKEKLKKLIVENFSV” belongs “not soluble”; to “MGSSHHHHHHSSGRENLYFQGHMSANVQEAANAAIEPASFVKVPMPEPPSSLQQLINDWQLIKHREGGYFKETDRSPYTMEVEKPVNGGSGNTEMVTRNQSTLIYYLLTPDSPIGKFHKNINRIIHILQRGKGQYVLVYPDGQVKSFKVGFDYKNGEVSQWVVPGGVFKASFLLPNEEFDNGFLISEVVVPGFDFEDHTFLKGEDELKHLVGPEKAAELAFLA”, “soluble”; to “MILHAQAKHGKLGLPWLVFLHGFSGDCHEWQEVGEAFADYSRLYVDLLGHGGSAAISVDGFDDVTDLLRKTLVSYNILDFWLVGYSLGGRVAMMAACQGLAGLCGVIVEGGHPGLQNAEQRAERQRSDRQWAQRFRTEPLTAVFADWYQQPVFASLNDDQRRELVALRSNNNGATLAAMLEATSLAVQPDLRANLSARTFAFYYLCGERDSKFRALAAELAADCHVIPRAGHNAHRENPAGVIASLAQILRF”, “not soluble”.
Then “NCHIFKTKAKESQGASPTLGQSEAYHRQNKPYEQQPYGFGVGKKMTSSSKSKVPIFKSFNLKSYQRNHYYSSKKERKHGSPDIDSLFHETNGASKVRMTDAGKMDTNSQFQEIWEILGKNAYTHKSYSEDPNSCLGSALSDHEEEEEAGKQQQQQQQQQQQQQHYGMTSKSSSPDEEKKNNKEPKRESRVSPEENGEEETGHKQFKLPKTSTFSSGSHDSNLQSPFYNHEYRHYARSKFECKNQFRKSVSPIKEIPATTSANEGWNILRDIIEKLNISNVDDRNKDLLFRRDEIGDKNHSDSIDIENLSIKEPKGMKRRKKDDISLEELFQSLPREKDYFMMDAINDSLESINLFKKPKTTQSHEQGGTFAQAESNRAKFKPLLEQCGITPEI”, with “not soluble”; and “EDYEKVPLPNSVFVNTTESCEVERLFKATSPRGEPQDGLYCIRNSSTKSGKVLVVWDETSNKVRNYRIFEKDSKFYLEGEVLFVSVGSMVEHYHTHVLPSHQSLLLRHPYGYT”, with “soluble”.
Consider “MAEHDITPEVTISKTQRRYKVGYVRARHQDRKTGIARYYSQHPSLHLKGDWLKEAGFDTGRGVTVKISEGGLTIIADSDEVQELRDGMFSVLNES”, for which the “soluble on expression in E. coli” value was “not soluble”.
As for “MSLWLAGTWYTGQRIETESQTRLNEINAQLAAAFPEFPVRINQLKLERGFFTSQARYGVEVGKSEETGKPEATVEVDARIEHGPFAPGALARGKLMPQLAFVHAEVANTEDLKKVFEVTKGATPLWSDTVVAYNGDSTSTGGLAAIDYSGDEGKFAFSGATFDGSYQRATQAAIGSLKADSLALDASADDDGGPLLFTLDGLAVTVDSRMGKSGLSIGDSALSVKRLEVKQPEGDAHLTVADMAYAARIGEQDEFINGEISYGAGEITYNGIALGNGRAVFKAERLNAAAIKVVADEYNKAIKLQAEGKDPVPDNAEMRKLLMAQADTLLAGKPVLTLDPVQWKTAQGESVFNARVALSKPASSDLMAVDYFSQAIESIDASATLSKPMIKALMVGYLQSQEGMDAQQAAAAADQQVSSLAGMAEMMNLGKNEGDNIVSKFHYAAGTVDLNGRKMPADQLLGSILGGEGHHHHHH”, the “soluble on expression in E. coli” value is “not soluble”.

(Values after the DeepSol protein solubility set.)
